From publication PMC6656757, “Structural insights into E1 recognition and the ubiquitin-conjugating activity of the E2 enzyme Cdc34” (Nature Communications, 2019)
Each block holds one molecule with its values, some of them ahead of it.

How the values were obtained:
S. pombe Uba1 (S. pombe) = target: T1, S. pombe Uba1 (S. pombe) (UniProt O94609)
T1 sequence: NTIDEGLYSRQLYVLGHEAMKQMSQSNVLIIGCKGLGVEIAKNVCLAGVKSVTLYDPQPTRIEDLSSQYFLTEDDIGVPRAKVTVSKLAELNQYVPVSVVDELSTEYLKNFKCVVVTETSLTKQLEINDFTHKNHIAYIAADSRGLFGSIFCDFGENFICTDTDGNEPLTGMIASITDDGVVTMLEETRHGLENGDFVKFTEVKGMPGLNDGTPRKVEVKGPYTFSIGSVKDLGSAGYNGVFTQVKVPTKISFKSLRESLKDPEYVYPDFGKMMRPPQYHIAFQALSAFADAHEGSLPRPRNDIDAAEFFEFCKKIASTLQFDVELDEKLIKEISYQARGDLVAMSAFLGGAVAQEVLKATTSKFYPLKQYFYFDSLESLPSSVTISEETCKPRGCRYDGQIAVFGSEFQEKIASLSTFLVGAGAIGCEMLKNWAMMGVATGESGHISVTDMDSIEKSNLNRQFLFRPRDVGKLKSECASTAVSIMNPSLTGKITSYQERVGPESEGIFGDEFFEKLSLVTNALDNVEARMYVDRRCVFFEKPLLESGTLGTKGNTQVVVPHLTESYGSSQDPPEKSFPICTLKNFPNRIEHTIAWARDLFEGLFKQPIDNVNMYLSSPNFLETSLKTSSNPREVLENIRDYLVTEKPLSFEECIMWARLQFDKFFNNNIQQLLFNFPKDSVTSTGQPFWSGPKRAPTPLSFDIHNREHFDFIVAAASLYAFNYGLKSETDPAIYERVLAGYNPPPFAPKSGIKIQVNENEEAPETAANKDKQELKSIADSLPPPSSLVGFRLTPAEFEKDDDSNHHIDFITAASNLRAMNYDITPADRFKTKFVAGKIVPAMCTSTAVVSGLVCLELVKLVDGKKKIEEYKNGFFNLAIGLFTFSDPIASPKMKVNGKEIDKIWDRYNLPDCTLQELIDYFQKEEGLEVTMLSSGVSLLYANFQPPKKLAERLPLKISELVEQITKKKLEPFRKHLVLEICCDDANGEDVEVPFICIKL

[1] = target: T2, S. cerevisiae Uba1 (a.a. 11–1024) (S. cerevisiae, UniProt P22515 11-1024, in the crystal: disulfide bond between the Uba1 and Cdc34 catalytic cysteines (cross-link)); assay: crystal structure; S. cerevisiae Uba1-Cdc34^Δdist held by a disulfide bond between the catalytic cysteines, mixed with Ub, 1 mM ATP and 5 mM MgCl2; crystals at 18 °C in 0.2 M ammonium sulfate, 25% PEG 3,350, 0.1 M Bis-Tris pH 6.5; 2.07 Å; two copies in the asymmetric unit; settings: both partners purified
T2 construct: residues 11-773 and 797-1024 built in the model; Cross-linked to Cdc34 only for the crystal; not cross-linked in the thioester transfer assays; also called ScUba1; E1; source: E. coli BL21 (DE3) Codon Plus, purified (Ni-NTA, gel filtration, MonoQ)
T2 sequence (P22515 11-1024): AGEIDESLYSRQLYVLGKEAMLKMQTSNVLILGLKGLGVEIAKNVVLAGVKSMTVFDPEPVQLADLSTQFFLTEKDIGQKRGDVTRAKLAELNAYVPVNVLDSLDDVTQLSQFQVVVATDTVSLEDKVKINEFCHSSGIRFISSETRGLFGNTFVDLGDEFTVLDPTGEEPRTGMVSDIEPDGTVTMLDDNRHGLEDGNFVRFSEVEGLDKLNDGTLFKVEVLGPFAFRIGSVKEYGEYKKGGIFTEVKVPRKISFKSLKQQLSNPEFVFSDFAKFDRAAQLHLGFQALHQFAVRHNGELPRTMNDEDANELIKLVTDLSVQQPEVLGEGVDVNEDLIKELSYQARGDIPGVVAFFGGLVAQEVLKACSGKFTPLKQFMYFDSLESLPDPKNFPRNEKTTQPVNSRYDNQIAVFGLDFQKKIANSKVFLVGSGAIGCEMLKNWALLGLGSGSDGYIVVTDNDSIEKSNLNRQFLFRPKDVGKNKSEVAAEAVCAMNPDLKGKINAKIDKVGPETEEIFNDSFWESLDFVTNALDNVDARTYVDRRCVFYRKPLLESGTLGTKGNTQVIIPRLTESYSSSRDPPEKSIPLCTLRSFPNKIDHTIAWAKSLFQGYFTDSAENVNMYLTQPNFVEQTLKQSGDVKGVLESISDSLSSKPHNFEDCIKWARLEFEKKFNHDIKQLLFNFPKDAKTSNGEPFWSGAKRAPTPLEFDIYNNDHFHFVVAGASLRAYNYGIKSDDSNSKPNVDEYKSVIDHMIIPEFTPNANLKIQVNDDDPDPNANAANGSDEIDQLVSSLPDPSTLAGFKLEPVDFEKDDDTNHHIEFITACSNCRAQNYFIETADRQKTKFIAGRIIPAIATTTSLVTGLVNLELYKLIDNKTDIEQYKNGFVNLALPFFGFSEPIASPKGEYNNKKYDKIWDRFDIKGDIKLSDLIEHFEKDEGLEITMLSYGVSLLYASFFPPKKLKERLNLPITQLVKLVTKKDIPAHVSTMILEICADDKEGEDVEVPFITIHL

E1-E2 thioester transfer assay: Ubc4 K4S (fold loss of activity) (S. pombe Uba1 (S. pombe)): 2
Molecule: Ubc4 K4S (from UniProt P46595 1-147) (enzyme)

E1-E2 thioester transfer assay (50 nM E1, 60 s): Ubc15 K12A (fold loss of activity) (S. pombe Uba1 (S. pombe)): 5
B1: Ubc15 K12A (enzyme)
chain: MPSSASEQLLRAQLKEIQKNPPQGFSVGLVDDKSIFEWEVMIIGPEDTLYEGGFFHATLSFPQDYPLMPPKMKFTTEIWHPNVHPNGEVCISILHPPGDDKYGYEDAGERWLPVHSPETILISVISMLSSPNDESPANIDAAKEFRENPQEFKKRVRRLVRRSIEMI

binding result [1]: binds
B2: S. cerevisiae Cdc34^Δdist (enzyme, UniProt P14682 1-195, looked up)
chain: MSSRKSTASSLLLRQYRELTDPKKAIPSFHIELEDDSNIFTWNIGVMVLNEDSIYHGGFFKAQMRFPEDFPFSPPQFRFTPAIYHPNVYRDGRLCISILHQSGDPMTDEPDAETWSPVQTVESVLISIVSLLEDPNINSPANVDAAVDYRKNPEQYKQRVKMEVERSKQDIPKGFIMPTSESAYISQSKLDEPES
modifications: in the crystal with Uba1: disulfide bond between the Uba1 and Cdc34 catalytic cysteines (cross-link)
notes: Cdc34, E2 ubiquitin-conjugating enzyme, S. cerevisiae; construct lacking CTD^dist (residues 196-295), made by a stop codon in Cdc34^FL; residues 3-102 and 112-181 built in the complex; Used here also as the wild-type Cdc34 of the thioester transfer assays with Uba1 mutants; also called ScCdc34^Δdist; source: E. coli BL21 (DE3) Codon Plus, purified
